Test results as given in the nanobody polyreactivity screen of Harvey et al. (2022).

Experiment: yeast display, Sf9 membrane polyspecificity reagent, FACS + sequencing; frameworks hold sequencing errors
How it was run: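 Sorting gates, low and high (top ~1%), were placed on anti-HA fluorescence to track expression and on streptavidin fluorescence to track reagent binding. A clone's polyreactivity label is taken from the gate it came out of. The reagent was 10% biotinylated, detergent-solubilized Sf9 membrane, applied for 1 hour at 4 °C to galactose-induced yeast display cells.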

| Sequence | polyreactivity (PSR sort gate) |
| --- | --- |
| QVQLVESGGGLVQAGGSLRLSCAASGIIFDTNAIGWYSQAPGKERELVATITQRGGTTYYADSVKGRFTISRDNAKNTVYLQMNSLKPEDTAVYYCNAGPVRLPYDSWGQGSQVTVSS | low polyreactivity |
| QVQLVESGGGLVQAGGSLRLSCAASGIIFDTYVMGWYRQAPGKERELVAAITRSGGRTRYADSVKGRFTISRDNAKNTVYLQMNSLKPEDTAVYYCAARIPDRQDGYGYWGQGTQVTVSS | high polyreactivity |
| QVQLVESGGGLVQAGGSLRLSCAASGIIFDWYAMGWYRQAPGTERELVAAISDSGDTTYYADSVKGRFTISRDNAKNTVYLQMNSLNPEDTAVYYCAARWEYVGYRRRYYRFDYWGQGTQVTVSS | high polyreactivity |
| QVQLVESGGGLVQAGGSLRLSCAASGIIFEGNVMGWYRQAPGKERELVAAITSDTSTNYADSVKGRFTISRDNAKNTVYIQMNSLKPEDTAVYYCNAVIGTDYYYSGTAEFYYWGQGTQVTVSS | low polyreactivity |
| QVQLVESGGGLVQAGGSLRLSCAASGIIFEGYAMGWYRQAPGKERELVAAISQSGGSTRYADSVKGRFTISRDNAKNTVYLQMNSLKPEDTAVYYCAKLSLSWDGYYQYDYWGQGTQVTVSS | low polyreactivity |
| QVQLVESGGGLVQAGGSLRLSCAASGIIFESNVMGWYRQAPGKERELVAAISRSGSRTYYADSVKGRFTISRDNAKNTVYLQMNSLKPEDTAVYYCATDSHTADEYEHWGQGTQVTVSS | high polyreactivity |
| QVQLVESGGGLVQAGGSLRLSCAASGIIFEYYDMGWYRQAPGKERELVAAIDSGGSTYYADSVKGRFTISRDNAKNTVYLQMNSLKPEDTAVYYCAAETVRYEWGESPAALFDYWGQGTQVTVSS | low polyreactivity |
| QVQLVESGGGLVQAGGSLRLSCAASGIIFFAYAMGWYRQAPGKERELVAAISSSGGRTYYSDSVKGRFTISRDNAKNTVYLQMNSMIPEDTAVYYCTARWHGSFDYWGQGTQVTVSS | low polyreactivity |
| QVQLVESGGGLVQAGGSLRLSCAASGIIFFDYAMGWYRQAPGKERELVAAITGSGGRTYYADSVKGRFTISRDNAKNTVYLQMNSLKPEDTAVYYCAAARYYYGGDYWGQGTQVTVST | high polyreactivity |
| QVQLVESGGGLVQAGGSLRLSCAASGIIFFEYVMGWYRQAPGQERELVAAINRSGGRTYYADSVKGRFTISRDNAKNTVYLQMNSLKPEDTAVYYCAAEHYTGSGGYDYWGHGTQVTVSS | high polyreactivity |
| QVQLVESGGGLVQAGGSLRLSCAASGIIFFGYAMGWYRQAPGKERELVADITNGGRTYYADSVKGRFTISRDNAKNTVYLQMNSLKPEDTAVYYCAADAFWEVYYYNALEYDYWGQGTQVTVSS | high polyreactivity |
| QVQLVESGGGLVQAGGSLRLSCAASGIIFGAYAMGWYRQAPGKERELVAAITYSSGSTYYADSVKGRFTISRDNAKNTVYLQMNRLKPEDTAVYYCAKTNFSQSSRSNYDYWGQGTQVTVSS | low polyreactivity |
| QVQLVESGGGLVQAGGSLRLSCAASGIIFGGNVMGWYRQAPGKERELVAAISGTGDNTYYADSVKGRFTISRDNAKNTVYLQMNSLKPEDTAVYYCNTVYYGWPRRYGYWGQGTQVTVSS | high polyreactivity |
| QVQLVESGGGLVQAGGSLRLSCAASGIIFGGYAMGWYRQAPGKERELVASITWGGGSTYYADSVKGRFTISRDNAKNTVYLQMNSLKPEDTAVYYCNKRGYPGYDWGQGTQVTVSS | low polyreactivity |
| QVQLVESGGGLVQAGGSLRLSCAASGIIFGHYALGWYRQAPGKERELVAAITASSGNTYYADSVKGRFTISRDNAKNTVYLQMNSLKPEDTAVYYCAAVSYSSYRYDSWGQGTQVTVSS | high polyreactivity |
| QVQLVESGGGLVQAGGSLRLSCAASGIIFGIYARGWYRQAPGKERELVAAIRYRGGNTNYADSVKGRFTISRDNAKNTVYLQMNSLKPEDTAVYYCAAKRFADPYYYWGQGTQVTVSS | high polyreactivity |
| QVQLVESGGGLVQAGGSLRLSCAASGIIFGKYDMGWYRQAPGKEREMVAAITSGTSTNYADSVKGRFTISRDNAKNTVYLQMNSLKPEDTAVYSCAADVYLYYPYFGHRRYNYWGQGTQVTVSS | high polyreactivity |
